Data on one molecule can be found in patent US20260159579A1 (Pfizer, published 2026).

Experiment [1] has as its target T1, Mouse Fc-human GDF15 (Mu IgG1Fc_Fxa_Hu GDF15) (human).
T1 construct: Whole entry is the fusion: mouse IgG1 Fc, FXa site and linker, mature human GDF15; described as dimeric; also called Murine dimeric IgG1 Fc-human GDF-15 with FXa cleavage site; control human GDF15
T1 chain: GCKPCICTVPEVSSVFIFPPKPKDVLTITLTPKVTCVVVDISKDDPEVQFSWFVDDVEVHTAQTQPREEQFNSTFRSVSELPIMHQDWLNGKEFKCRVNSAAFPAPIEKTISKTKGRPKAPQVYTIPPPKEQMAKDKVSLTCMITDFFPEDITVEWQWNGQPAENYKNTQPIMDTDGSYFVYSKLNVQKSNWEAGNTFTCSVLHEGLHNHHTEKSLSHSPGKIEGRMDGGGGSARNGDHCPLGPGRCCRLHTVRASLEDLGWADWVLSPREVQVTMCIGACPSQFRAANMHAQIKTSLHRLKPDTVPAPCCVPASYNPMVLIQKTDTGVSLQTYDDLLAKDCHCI
In words: SPR BIAcore T200, 37C; Fc-GDF15 captured, monomeric Fc-Fab as analyte; human GDF15 ligand (Mu IgG1Fc_Fxa_Hu GDF15), second run. The source says: (§1) To understand the KD value, without the avidity effect, of GDF15_001 binding to GDF15, monomeric Fc-Fab was produced and tested in the same assay used in Example 2. […] Mu IgG1Fc_Fxa_Hu GDF15, Mu IgG1Fc_Fxa_Mu GDF15 and Mu IgG1Fc_Fxa_Cyno GDF15 were captured onto three different flow cells of a CM4 sensorchip (catalogue number BR100534, GE Healthcare) surface using the Mouse Antibody Capture Kit (BR100838, GE Healthcare) according to the manufacturer's protocol. The running and sample buffer was 10 mM HEPES pH 7.4, 0.15M NaCl, 3 mM EDTA, 0.05% P-20 (HBS-EP+). The final capture levels of Mu IgG1Fc_Fxa_Hu GDF15, Mu IgG1Fc_Fxa_Mu GDF15 and Mu IgG1Fc_Fxa_Cyno GDF15 were 19 resonance units (RU), 22 RU and 19 RU respectively. Flow cell 1 was used as a reference flow cell. […] The dissociation was monitored for 1200 seconds and the surface was regenerated with 10 mM Glycine pH 1.7. Binding affinities and rate constants were determined by fitting the resulting sensorgram data to a 1:1 Langmuir model in BIAcore T200 Evaluation software version 2.0 (GE Healthcare).
Background: SPR reads the build-up and loss of mass on a sensor chip optically.

The target of experiment [2] is T1, Mouse Fc-human GDF15 (Mu IgG1Fc_Fxa_Hu …). Briefly: SPR BIAcore T200, 37C; Fc-GDF15 captured, monomeric Fc-Fab as analyte; average of runs.
Text: as §1

Experiment [3] addresses T2, Mouse Fc-cynomolgus monkey GDF15 (Mu IgG1Fc_Fxa_Cyno GDF15) (cynomolgus monkey).
T2 construct: Whole entry is the fusion: mouse IgG1 Fc, FXa site and linker, cynomolgus GDF15; described as dimeric; also called Murine dimeric IgG1 Fc-cyno GDF-15 with FXa cleavage site
T2 chain: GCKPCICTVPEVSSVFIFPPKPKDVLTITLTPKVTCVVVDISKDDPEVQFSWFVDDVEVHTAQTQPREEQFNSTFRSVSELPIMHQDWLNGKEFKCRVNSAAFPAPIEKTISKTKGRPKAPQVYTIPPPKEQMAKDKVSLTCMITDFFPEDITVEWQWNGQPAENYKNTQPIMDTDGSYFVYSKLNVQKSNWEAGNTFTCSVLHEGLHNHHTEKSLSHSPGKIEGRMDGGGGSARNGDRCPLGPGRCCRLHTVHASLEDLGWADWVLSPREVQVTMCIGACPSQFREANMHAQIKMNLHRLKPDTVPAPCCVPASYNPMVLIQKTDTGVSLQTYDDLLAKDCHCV
The experiment is described as above.
Text: as §1

For another experiment, the target named is T3, human TGFß-1 (human, UniProt P01137 279-390).
T3 construct: Bought; also called TGFB-1
Briefly: BLI, OctetRED 384; family member amine coupled to AR2G biosensor. How it is done: (§2) To assess the binding specificity of GDF15_001 to human GDF15, GDF15_001 binding to additional TGFB family members was tested. Analysis was carried out on an Octet Red instrument.
(§3) The TGFB family members were diluted to 10 ug/ml in 10 mM Sodium Acetate pH 4.5 and amine coupled onto AR2G biosensors (catalogue #18-5092, ForteBio) according to the manufacturer's instructions. Monomeric GDF15_001 was diluted to 200 nM in kinetics buffer (catalogue #18-5032 ForteBio). Octet assays were conducted at room temperature with an association time of 300 seconds and a dissociation time of 180 seconds. The data was double referenced (Myszka, D., J. Mol. Recognit 1999; 279-284) and analyzed with Octet Data Analysis software version 8.1 (ForteBio).
In general terms: In BLI a coated tip is dipped into the sample, and binding shifts an interference pattern.

Another experiment has as its target T4, human GDF8 (human, UniProt O14793 267-375, limits assumed).
T4 construct: In-house material
T4 sequence (looked up): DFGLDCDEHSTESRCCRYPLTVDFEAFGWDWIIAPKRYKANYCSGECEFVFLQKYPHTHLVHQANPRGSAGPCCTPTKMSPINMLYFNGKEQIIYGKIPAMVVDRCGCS
The experiment is described as above. The procedure: as §2, §3

The target in another experiment is T5, human Inhibin A (human, UniProt P05111 233-366; P08476 311-426).
T5 construct: Bought
T5 sequence (looked up) 1: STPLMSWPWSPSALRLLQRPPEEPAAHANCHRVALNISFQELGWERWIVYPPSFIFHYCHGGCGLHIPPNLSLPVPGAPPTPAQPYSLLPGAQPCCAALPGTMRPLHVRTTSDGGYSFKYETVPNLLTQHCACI
T5 sequence (looked up) 2: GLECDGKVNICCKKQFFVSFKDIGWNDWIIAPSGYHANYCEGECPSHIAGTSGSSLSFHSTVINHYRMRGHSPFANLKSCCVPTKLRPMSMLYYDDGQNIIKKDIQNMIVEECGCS
The experiment is described as above. The procedure:
as §2, §3

For the next experiment, the target named is T6, human BMP6 (human, UniProt P22004 382-513, limits assumed).
T6 construct: Bought
T6 sequence (looked up): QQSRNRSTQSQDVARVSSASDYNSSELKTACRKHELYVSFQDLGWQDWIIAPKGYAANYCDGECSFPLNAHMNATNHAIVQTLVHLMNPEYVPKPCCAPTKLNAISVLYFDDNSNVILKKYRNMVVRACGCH
The experiment is described as above. How it is done:
as §2, §3

T3 sequence (P01137 279-390 limits assumed): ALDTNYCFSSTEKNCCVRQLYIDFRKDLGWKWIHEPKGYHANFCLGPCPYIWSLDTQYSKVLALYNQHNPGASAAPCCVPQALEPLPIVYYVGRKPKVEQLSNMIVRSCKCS

B1: monomeric GDF15_001 (CH23LS-GBT-GDF15_001) (Fab, V domains shown)
VH: QVQLVQSGAEVKKPGSSVKVSCKASGYTFSSYNIDWVRQAPGQGLEWMGGINPIFGTAFYNQKFQGRVTITADESTSTAYMELSSLRSEDTAVYYCAREAITTVGAMDHWGQGTLVTVSS
VL: EIVLTQSPATLSLSPGERATLSCRTSQSVHNYLAWYQQKPGQAPRLLIYDASTRADGIPARFSGSGSGTDFTLTISSLEPEDFAVYYCQQFWSWPWTFGQGTKVEIK
notes: Monovalent 'monomeric Fc-Fab' of GDF15_001 made to measure KD without avidity; also called CH23LS-GDF15_001; monomeric Fc-Fab
The term Kd denotes the equilibrium constant for the complex coming apart. Broadly, the koff is a measure of how fast the partners let go of each other. Broadly, the kon is the second-order rate constant of association. As for B1, the results for the Kd in experiment [1], in experiment [2] and in experiment [3] were 0.0276 nM, 0.0213 nM and 0.062 nM, respectively. Moreover, the figures for the koff in experiment [2] and in experiment [3] were 3.42e-05 s⁻¹ and 8.43e-05 s⁻¹, respectively. In addition, the kon in experiment [2] came out at 1.59e+06 M⁻¹ s⁻¹; in experiment [3] it was 1.42e+06 M⁻¹ s⁻¹. The binding result with human TGFß-1, with human GDF8, in the experiment with human Inhibin A and in the experiment with human BMP6 was “no binding (tested: 200 nM)” throughout.
